Numbering of substitutions follows the chain as printed.
B1: monoclonal antibody 1.100.1 (antibody, V domains shown)
VH: EVQLVESGGGLVKPGGSLRLSCAASGFTFSSYSMNWVRQAPGKGLEWVSSISSSSSYIYYADSVKGRFTISRDNAKNSLYLQMNSLRAEDTAVYYCARGGDGYNYYYFDYWGQGTLVTVSS
VL: DIVMTQSPDSLAVSLGERATITCKSSQSVFFRSNNKNCLAWYQQRPGQPPNLLIYWASTRESGVPDRFSGSGCGTDFTLTISSLQAEDVAVYYCQQYFGSPFTFGPGTKVDIK
notes: Fully human IgG (gamma/kappa) from a XenoMouse XM3B-3 hybridoma; constant regions not tied to it; also called 1.100.2; 1.100.3
B2: monoclonal antibody 1.14.1 (antibody, V domains shown)
VH: B1 VH
VL: B1 VL with A40T, C73S, S82N, S83N
notes: Fully human IgG (gamma/kappa) from a XenoMouse XM3B-3 hybridoma; constant regions not tied to it
B3: monoclonal antibody 1.20 (antibody, V domains shown)
VH: B1 VH with S33T, R87S, Y95S
VL: B1 VL with D9G, A12V, P49S, C73S
notes: Fully human IgG (gamma/kappa) from a XenoMouse XM3B-3 hybridoma; constant regions not tied to it; also called 1.20.1; 1.19
B4: monoclonal antibody 1.24 (antibody, V domains shown)
VH: B1 VH
VL: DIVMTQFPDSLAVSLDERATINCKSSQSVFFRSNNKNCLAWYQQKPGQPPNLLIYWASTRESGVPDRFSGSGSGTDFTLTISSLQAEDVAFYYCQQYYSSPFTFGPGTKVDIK
notes: Fully human IgG (gamma/kappa) from a XenoMouse XM3B-3 hybridoma; constant regions not tied to it; also called 1.24.3
B5: monoclonal antibody 1.96 (antibody, V domains shown)
VH: B1 VH
VL: B1 VL with I54F, C73S, F104L
notes: as for B2
B6: monoclonal antibody 1.43 (antibody, V domains shown)
VH: EVQLVESGGGLVQPGGSLRLSCAASGFTFSSYWMHWVRQTPGKGLEWVANIKQDGSEKYYVDSVKGRFTISRDNAKNSLHLQMNSLRAEDTAAYYCASFRDYGMDVWGQGTTVTVSS
VL: DIQMTQSPSSLSASVGDRVTITCRASQGISNHLAWFQQKPGKAPKSLIYGASSLQTGVPSKFSGSGSGTDFTLTISSLQPEDFASYFCQQYKGYPITFGQGTRLEIK
B7: monoclonal antibody 1.71.3 (antibody, V domains shown)
VH: EVQLVESGGGLVQPGGSLRLSCTASGFPFSSYDMHWVRQATGKGLEWVSAIGTAGDTFYPGSVKGRFTISRENAKNSLYLQMNSLRAGDTAVYYCAREGYSSGRYFYYGMDVWGQGTTVTVSS
VL: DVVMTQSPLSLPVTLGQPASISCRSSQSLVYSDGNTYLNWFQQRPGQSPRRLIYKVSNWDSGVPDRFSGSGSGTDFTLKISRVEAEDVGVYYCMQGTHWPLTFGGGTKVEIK
B8: monoclonal antibody 1.140 (antibody, V domains shown)
VH: B1 VH with G42R
VL: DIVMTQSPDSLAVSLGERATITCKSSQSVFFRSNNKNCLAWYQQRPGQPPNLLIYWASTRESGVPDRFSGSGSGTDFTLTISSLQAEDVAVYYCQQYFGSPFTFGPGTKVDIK
notes: Fully human IgG (gamma/kappa) from a XenoMouse XM3B-3 hybridoma; constant regions not tied to it; also called 1.124

Key:
[1] = molecular target: T1, human ErbB2, full length, on cells (human, UniProt P04626 23-1255); assay: cell-based or functional assay
[2] = molecular target: T1, human ErbB2, full length, on cells; assay: cell-based or functional assay; remark: listed apart in the source
[3] = molecular target: T1, human ErbB2, full length, on cells; assay: cell-based or functional assay; remark: listed apart in the source
[4] = molecular target: T1, human ErbB2, full length, on cells; assay: cell-based or functional assay; remark: listed apart in the source
[5] = molecular target: T2, human ErbB2 ECD-myc/His fusion protein (human, UniProt P04626 23-652); assay: limited antigen ELISA, 31 ng/ml ErbB2 ECD-myc/His coated, supernatant 1:25
T2 construct: Made in-house in 293T cells; also called hErbB2(ECD)/cMyc-His; huErbB2 (ECD)/c-myc-His; not shown: c-myc/His tag of the pSecTag2Hygro vector
Procedure: […] […] Antigen-coated plates were washed three times, blocked with 1% non-fat skim milk/PBS for at least 30 minutes at room temperature, and then washed again three times. Each hybridoma line sample was titrated in 1% non-fat skim-milk/PBS 1:3 for 7 points starting from a 1:25 dilution. […] The next day, plates were washed three times and incubated with 50 μl of 400 ng/ml immunopure Goat anti-human IgG (Fc)-HRP (Pierce catalog #31416) for 1 hour at room temperature. Then, the plates were extensively washed and pat dried on paper towel to remove residual HRP in wells. HRP substrate TMB (enhanced K-blue TMB, Neogen catalog #308177) was added to each well and incubated for 30 min. The reaction was stopped by addition of 1N HCl. Optical density at 450 nm was read on a microplate reader (Titerteck Multiskan Ascent).

[6] = molecular target: T1, human ErbB2, full length, on cells; assay: cell-based or functional assay; remark: listed apart in the source
[7] = molecular target: T2, human ErbB2 ECD-myc/His fusion protein; assay: SPR, Biacore 2000 medium resolution; mAb captured on goat anti-human IgG, ErbB2(ECD)-cMyc/His injected; 1:1 fit
Procedure: The binding affinity of eight of the anti-ErbB2 antibodies was measured by medium resolution Biacore. All experiments were performed using a Biacore 2000 instrument.
First, 12 high-density goat α-human IgG antibody surfaces over three CM5 Biacore chips were prepared using routine amine coupling. […] Before each antigen injection cycle, each mAb was captured for six to nine seconds at a 100 μL/min flow rate. A 2-minute wash step followed each capture injection to stabilize each mAb baseline. […] All samples were randomly injected with several mAb capture/buffer inject cycles interspersed for double referencing. […] A flow rate of 100 μL/min. was used for all injection cycles. The data was fit to a 1:1 interaction model using CLAMP.

[8] = molecular target: T1, human ErbB2, full length, on cells; assay: cell-based or functional assay; remark: listed apart in the source
[9] = molecular target: T2, human ErbB2 ECD-myc/His fusion protein; assay: SPR, Biacore T100 high resolution; mAb captured on goat anti-human IgG, hHer-2(ECD)cMyc injected; 1:1 fit
Procedure: All experiments were performed using a Biacore T100 instrument. First, a high-density goat α human IgG antibody (Caltag H10500) surface was prepared over two CM5 Biacore chips using routine amine coupling. Each mAb was diluted in HBS-P running buffer containing 100 μg/ml Bovine serum albumin (BSA).
A capture level protocol was developed for all five mAbs. Before each antigen injection cycle, each mAb was captured for 15 to 30 seconds at a 20 μL/min flow rate. A 5-minute wash step followed each capture injection to stabilize each mAb baseline. […] The samples were prepared in the running buffer described above. All samples were randomly injected with several mAb capture/buffer inject cycles interspersed for double referencing. […] A flow rate of 50 μL/min. was used for all injection cycles.
All sensorgram data were fit to a 1:1 interaction model using CLAMP.

Binder	EC50 (ng/ml) n1, inhibition of Heregulin-induced ErbB2 phosphorylation in MCF7 cells [1]	EC50 (ng/ml) n2, inhibition of Heregulin-induced ErbB2 phosphorylation in MCF7 cells [1]	% Inhibition @10 µg/ml, Heregulin-induced MCF7 cell proliferation [2]	EC50 (ng/ml), inhibition of Heregulin-induced MCF7 cell proliferation [2]	% inhibition @36 µg/ml, SKBR3 cell proliferation [3]	EC50 (ng/ml), inhibition of SKBR3 cell proliferation [3]	N1 % Inhibition @40 µg/ml, BT474 cell proliferation [4]	N1 EC50 (ng/ml), inhibition of BT474 cell proliferation [4]	N2 % Inhibition @40 µg/ml, BT474 cell proliferation [4]	N2 EC50 (ng/ml), inhibition of BT474 cell proliferation [4]	LA at 31 ng/ml (OD) [5]	% Inhibition @10 µg/ml (n1), ErbB2 phosphorylation in BT474 cells at 48 hours [6]	% Inhibition @10 µg/ml (n2), ErbB2 phosphorylation in BT474 cells at 48 hours [6]	Kd [7]	koff [7]	kon [7]	1 hr pTyr inhibition % (Heregulin-induced ErbB2 phosphorylation in MCF7 cells, hybridoma supernatant) [8]	24 hr pTyr inhibition % (Heregulin-induced ErbB2 phosphorylation in MCF7 cells, hybridoma supernatant) [8]	further results
B1	39.9 ng/mL	33.7 ng/mL	95%	2040 ng/mL	54%	61.3 ng/mL	35%	169 ng/mL	32%	91.1 ng/mL	3.54 OD 450 nm	37%	26%	2.9 nM	0.000301 s⁻¹	104000 M⁻¹ s⁻¹	95%	95%	
B2	33.7 ng/mL	22.9 ng/mL	96%	640 ng/mL	52%	35.7 ng/mL	38%	136 ng/mL	39%	63 ng/mL	3.99 OD 450 nm	37%	45%	2.5 nM	0.000256 s⁻¹	102000 M⁻¹ s⁻¹	103%	100%	
B3	15.5 ng/mL	17.4 ng/mL	100%	770 ng/mL	49%	25.2 ng/mL	40%	85.3 ng/mL	37%	12.8 ng/mL		21%	28%	3.6 nM	0.000344 s⁻¹	95000 M⁻¹ s⁻¹	91%	96%	
B4	42.9 ng/mL	20.4 ng/mL	81%	3020 ng/mL	37%	48.5 ng/mL	24%	198 ng/mL	29%	74.4 ng/mL	2.35 OD 450 nm			5.1 nM	0.000655 s⁻¹	128000 M⁻¹ s⁻¹	77%	99%	
B5	28.8 ng/mL	34 ng/mL	98%	2830 ng/mL	43%	41.7 ng/mL	35%	131 ng/mL	29%	66.3 ng/mL		37%	30%	2.6 nM	0.000273 s⁻¹	103000 M⁻¹ s⁻¹			Kd [9]: 11.6 nM; koff [9]: 0.000194 s⁻¹; kon [9]: 16800 M⁻¹ s⁻¹
B6	> 10000 ng/mL	> 10000 ng/mL	53%	~10000 ng/mL															
B7	> 10000 ng/mL			> 10000 ng/mL															
B8	14.7 ng/mL	22.9 ng/mL	91%	633 ng/mL	44%	42.7 ng/mL	39%	300 ng/mL	45%	70.9 ng/mL		31%	33%	3.5 nM	0.000333 s⁻¹	94000 M⁻¹ s⁻¹			Kd [9]: 10.6 nM; koff [9]: 0.000173 s⁻¹; kon [9]: 16400 M⁻¹ s⁻¹
